We go through one molecule from patent publication US20250281600A1 (published 2025).

This assay deals with SARS-COV-2 Spike Protein Native RBD (UniProt P0DTC2 333-526). Kind of assay: BLI.

B1: REGN10933 IgG (antibody, V domains shown)
VH: QVQLVESGGGLVKPGGSLRLSCAASGFTFSDYYMSWIRQAPGKGLEWVSYITYSGSTIYYADSVKGRFTISRDNAKSSLYLQMNSLRAEDTAVYYCARDRGTTMVPFDYWGQGTLVTVSS
VL: DIQMTQSPSSLSASVGDRVTITCQASQDITNYLNWYQQKPGKAPKLLIYAASNLETGVPSRFSGSGSGTDFTFTISGLQPEDIATYYCQQYDNLPLTFGGGTKVEIKR
B1 returned a Kd of 1.8 nM.
